We go through 3 molecules from EP4279092A1 (Bayer AG, dated 2023).

For the assay, the target named is prostate-specific membrane antigen (PSMA) on prostate cancer cell lines (human, UniProt Q04609 1-750). Description: cell-based or functional assay.
prostate-specific membrane antigen (PSMA) on prostate cancer cell lines, sequence (Q04609 whole entry): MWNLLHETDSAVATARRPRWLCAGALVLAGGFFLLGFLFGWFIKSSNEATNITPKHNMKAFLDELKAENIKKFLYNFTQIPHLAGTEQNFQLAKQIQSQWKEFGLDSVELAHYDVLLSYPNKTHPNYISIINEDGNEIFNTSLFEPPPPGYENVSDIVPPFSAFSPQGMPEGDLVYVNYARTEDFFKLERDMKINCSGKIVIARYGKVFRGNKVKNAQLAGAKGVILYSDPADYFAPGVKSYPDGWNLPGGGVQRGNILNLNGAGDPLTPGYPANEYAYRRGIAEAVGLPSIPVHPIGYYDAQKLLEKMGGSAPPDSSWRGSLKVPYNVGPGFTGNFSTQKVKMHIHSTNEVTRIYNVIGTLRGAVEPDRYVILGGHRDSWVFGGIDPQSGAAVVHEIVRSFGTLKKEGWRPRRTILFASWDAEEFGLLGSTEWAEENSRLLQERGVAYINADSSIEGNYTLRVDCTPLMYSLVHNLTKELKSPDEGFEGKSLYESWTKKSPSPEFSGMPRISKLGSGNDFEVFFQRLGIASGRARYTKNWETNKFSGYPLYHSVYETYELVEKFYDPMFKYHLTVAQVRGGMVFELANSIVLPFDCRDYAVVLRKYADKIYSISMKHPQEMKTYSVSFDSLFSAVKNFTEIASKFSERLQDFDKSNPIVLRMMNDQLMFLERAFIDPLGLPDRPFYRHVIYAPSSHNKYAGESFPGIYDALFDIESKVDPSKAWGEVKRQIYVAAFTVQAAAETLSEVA

B1: Ac-225-macropa-Pelgifatamab (CAR 0.8) (antibody, V domains shown)
VH: QVQLVESGGGVVQPGRSLRLSCAASGFAFSRYGMHWVRQAPGKGLEWVAVIWYDGSNKYYADSVKGRFTISRDNSKNTQYLQMNSLRAEDTAVYYCARGGDFLYYYYYGMDVWGQGTTVTVSS
VL: DIQMTQSPSSLSASVGDRVTITCRASQGISNYLAWYQQKTGKVPKFLIYEASTLQSGVPSRFSGGGSGTDFTLTISSLQPEDVATYYCQNYNSAPFTFGPGTKVDIKR
modifications: macropa chelator complexing 225Ac, coupled via thiourea to the terminal amino group of a Lysine residue; chelator-to-antibody ratio 0.8; chain and position not stated
Regarding B1, the “IC50, in-vitro cytotoxicity (CellTiterGlo), C4-2 cells” value (shortened to “IC50 … C4-2 cells”) amounted to 0.09 kBq/ml and the “IC50, in-vitro cytotoxicity (CellTiterGlo), MDA-PCa-2b cells” value (“IC50 … MDA-PCa-2b cells” for short) was determined as 0.05 kBq/ml.

B2: Ac-225-DOTA-Pelgifatamab CAR 5.7 (antibody, V domains shown)
VH: B1 VH
VL: B1 VL
modifications: p-SCN-Bn-DOTA chelator complexing 225Ac, coupled to the terminal amino group of Lysine residues; chelator-to-antibody ratio 5.7; chain and positions not stated
With B2, the “IC50 … C4-2 cells” value came out at 0.15 kBq/ml and the “IC50 … MDA-PCa-2b cells” value worked out at 0.09 kBq/ml.

B3: Ac-225-DOTA-Pelgifatamab CAR 12.7 (antibody, V domains shown)
VH: B1 VH
VL: B1 VL
modifications: p-SCN-Bn-DOTA chelator complexing 225Ac, coupled to the terminal amino group of Lysine residues; chelator-to-antibody ratio 12.7; chain and positions not stated
Consider B3, for which the “IC50 … C4-2 cells” value amounted to 0.29 kBq/ml and the “IC50 … MDA-PCa-2b cells” value was 0.2 kBq/ml.
